Measurements published in patent publication US11351270B2, “Junctophilin-2 fragments and uses therefor” (University of Iowa Research Foundation, priority 2016, dated 2022).

Tests used:
RyR2 and Cav1.2 = assay: Coimmunoprecipitation with E-C coupling channels; assay type: binding, mouse; conditions: anti-HA immunoprecipitation
Text: FIGS. 5A-H. JP2 truncations are nonfunctional in regulating Ca^2+ transients. A) An antibody against the HA tag was used to reveal the localization of adenoviral expression of tagged full-length JP2 and truncations, as indicated, in adult wild-type cardiomyocytes. All the three version of JP2 can be localized in the striated pattern. B) Full-length JP2 and JP2(1-565) forms complexes with RyR2 and Cav1.2 In vivo. An antibody against HA was used for immunoprecipitation […]. The RyR2 and Cav1.2 that were pulled down were detected by Western blot analysis. […] IB, immunoblot. C) Adenovirus-mediated expression of full-length JP2, FLAG-JP2(1-565)-HA, and JP2(566-end)-HA in JP2-KD) cardiomyocytes. D) Representative steady-state Ca^2+ transients under 1-Hz field stimulation. The fluorescence intensity (F) of Ca^2+ imaging was normalized to the baseline (FO). The red lines overlapping on Ca^2+ imaging show the profile of the moment of Ca^2+ transient firing on the scanning line in a point-by-point way. A straighter line means better synchronization of the Ca^2+ transients. Note that expression of full-length JP2, but not JP2 truncations, improves the amplitude and synchronization of Ca^2+ transients. E-G) Summary of Ca^2+ transient amplitude, index of desynchronization (mean absolute deviation of firing time), and duration of 50% decay (T5) (n=68, 70, 70, and 52 for Ad-Empty, Ad-JP2, […], and Ad-JP2(566-end), respectively). Only full-length JP2 Improves the amplitude, synchronization, and decay of Ca^2+ transients. H) Summary of SR Ca^2+ content, which was assessed by caffeine-induced SR Ca^2+ release (n=17, 17, 17, and 12 for Ad-Empty, Ad-JP2, Ad-JP2(1-565), and Ad-JP2(566-end), respectively). **, p<0.01 versus indicated groups; N.S., not significant.
Cleavage at the primary calpain proteolysis site (Arg-565/Thr-566) splits apart the C-terminal SR-binding TM domain and N-terminal plasma membrane-binding MORN domains of JP2. […]

[1] = tested on: cultured adult murine cardiomyocytes; assay: Affymetrix Genechip analysis of cultured cardiomyocytes; assay type: cell-based, mouse
Method: Genecarrior-1 (Epoch Lab) was used to transfect plasmids into HEK293T cells. Isolation and culture of cardiomyocytes were performed as described previously (Guo et al., 2015). Adenoviruses were applied at a multiplicity of infection (MOI) of about 100, which results in transfection of almost all cells as confirmed by immunostaining of eptiope tags.
Microarray assay was performed by Affymetrix GeneChip® Mouse Genome 430 2.0 according to the standard procedure of cRNA preparation and Genechip hybridization. The R package limma (version 3.22.7) (Ritchie et al., 2015) was used for processing microarray data and identifying differentially expressed genes (the cutoff of significance was p value<0.01). David (Huang et al., 2009) was used for gene enrichment (GO) analysis. Ingenuity pathway analysis (IPA, Qiagen) was used for pathway analysis.

[2] = tested on: MEF2C-mediated transcriptional activity; assay: MEF2 luciferase reporter assay; assay type: cell-based; conditions: 293 cells co-transfected with MEF2C and PMEF2-firefly, relative to PSV40-Renilla
Method: (§1) Firefly and Renilla reporter plasmids and JP2NT variants were co-transfected into HEK293 cells. The protein of the cells was harvested 48 hours after transfection. Promega dual luciferase system was used to evaluate the luciferase activity.
To examine whether JP2NT regulates MEF2-mediated transcription, a luciferase reporter system with firefly cDNA driven by the desmin enhancer-derived MEF2 binding site (PMEF2-firefly) (Naya et al., 1999) was used.

[3] = tested on: promoters of Myc, KLF6, TGFβR1 and NFKBIA; assay: Promoter luciferase reporter assay; assay type: cell-based; conditions: co-expression; vs empty vector control
Method: as §1
To further test whether JP2NT regulates transcription of these genes, luciferase reporters controlled by promoters of Myc, KLF6, TGFβR1 and NFKBIA were constructed.

[4] = tested on: RNA polymerase II (RPB1) and TATA-box binding protein (TBP); assay: Crosslinking-reversal co-IP in 293T cells; conditions: JP2NT-transfected 293T cells
Method: Cells were first crosslinked by 1% formaldehyde for 10 minutes at RT before quenching by 0.75 M Tris. After washing with PBS, cells were lysized using RIPA buffer and sonication was applied to breakdown chromatin and shear DNA. Anti-HA resin (sigma) was used to pull down HA tagged protein complexes. The pulled-down protein complexes were boiled at 95° C. for 10 minutes to reverse the formaldehyde induced crosslinking between proteins. Western blot was used to assay the presence of bait and prey proteins.
TBP specifically binds to TATA boxes, eukaryotic core cis-regulatory elements localized at transcription start site. […] This interaction was abrogated by mutation of the TATA box elements (FIGS. 11E&G and 17B). It was concluded that JP2NT is a DNA binding protein, binding to consensus TATA box represented as TATAA(A/T) or TATATA (FIG. 11F).

MEF2C = biological target: T1, MEF2C (Homo sapiens, UniProt Q06413); assay: Co-IP of Myc-tagged MEF2C and HA-tagged JP2NT in 293 cells; assay type: binding
T1 construct: expressed in transfected cells; host or cells: 293 cells
Text: The MEF2 family, master regulators of hypertrophic genes in cardiomyocytes, binds to the A/T enriched consensus sequence (C/TTA(A/T)4TA G/A), which shares the same core sequence with TATA box. Thus, it was hypothesized that JP2NT directly interacts with MEF2 binding sites.

T1 sequence (Q06413 whole entry, species assumed): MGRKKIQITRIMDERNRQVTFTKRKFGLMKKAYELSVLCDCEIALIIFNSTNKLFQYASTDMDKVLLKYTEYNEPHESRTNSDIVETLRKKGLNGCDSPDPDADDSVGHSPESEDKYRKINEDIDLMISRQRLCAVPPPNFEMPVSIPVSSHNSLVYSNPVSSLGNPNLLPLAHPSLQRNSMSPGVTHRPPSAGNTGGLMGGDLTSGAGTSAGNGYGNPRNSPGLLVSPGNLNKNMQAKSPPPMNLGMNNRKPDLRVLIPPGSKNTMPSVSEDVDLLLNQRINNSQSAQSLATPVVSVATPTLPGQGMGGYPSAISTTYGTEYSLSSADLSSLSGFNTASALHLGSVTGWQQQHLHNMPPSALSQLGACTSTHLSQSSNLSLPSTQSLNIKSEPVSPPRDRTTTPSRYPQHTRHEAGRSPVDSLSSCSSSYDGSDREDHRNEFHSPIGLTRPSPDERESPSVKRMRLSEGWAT

B1: JP2NT: shorter form of Junctophilin-2 including the first 565 amino acids of N-terminus of JP2 (protein, UniProt Q9BR39 1-565, looked up, fragment)
chain: MSGGRFDFDDGGAYCGGWEGGKAHGHGLCTGPKGQGEYSGSWNFGFEVAGVYTWPSGNTFEGYWSQGKRHGLGIETKGRWLYKGEWTHGFKGRYGIRQSSSSGAKYEGTWNNGLQDGYGTETYADGGTYQGQFTNGMRHGYGVRQSVPYGMAVVVRSPLRTSLSSLRSEHSNGTVAPDSPASPASDGPALPSPAIPRGGFALSLLANAEAAARAPKGGGLFQRGALLGKLRRAESRTSVGSQRSRVSFLKSDLSSGASDAASTASLGEAAEGADEAAPFEADIDATTTETYMGEWKNDKRSGFGVSERSSGLRYEGEWLDNLRHGYGCTTLPDGHREEGKYRHNVLVKDTKRRMLQLKSNKVRQKVEHSVEGAQRAAAIARQKAEIAASRTSHAKAKAEAAEQAALAANQESNIARTLARELAPDFYQPGPEYQKRRLLQEILENSESLLEPPDRGAGAAGLPQPPRESPQLHERETPRPEGGSPSPAGTPPQPKRPRPGVSKDGLLSPGAWNGEPSGEGSRSVTPSEGAGRRSPARPATERMAIEALQAPPAPSREPEVALYQG
modifications: GST or adenoviral forms
notes: shorter form of Junctophilin-2 including the first 565 amino acids of N-terminus of JP2
interaction with RyR2 and Cav1.2 (RyR2 and Cav1.2): interact
differentially expressed genes mapped to genomic loci bound in ChIP-seq [1]: about 74%
ERK/MAPK, NF-κB, TGF-β and integrin signaling pathways (Ingenuity Pathway Analysis) ([1]; IPA of differentially expressed genes): predicted to be inhibited
significantly induced known genes (p<0.01) ([1]; vs Ad-Empty control): 574 genes
significantly repressed known genes (p<0.01) ([1]; vs Ad-Empty control): 1996 genes
MEF2-responsive luciferase signal [2]: attenuated the MEF2-responsive signal in a dose-dependent manner
promoter activity (firefly luciferase) [3]: significantly attenuated
association with RNA polymerase II (RPB1) and TBP [4]: associates
interaction with MEF2C (MEF2C): interaction
